Experimental data reported in patent publication US20220259306A1 (SHANGHAI HYAMAB BIOTECH, published 2022).

How the values were obtained:
[1] = molecular target: T1, monkey NKG2A/CD94 on the cell surface (CHOk1-cNKG2A/CD94 stable cell line) (macaque, UniProt Q9MZJ3 1-233; Q9MZK9 1-179); assay: FACS of scFv on cells with macaque NKG2A (cell line not given)
T1 construct: also called macaque NKG2A; cyno NKG2A

[2] = molecular target: T2, hFc-tagged NKG2A/CD94 protein (NKG2A/CD94-hFc), immunogen A (human, UniProt P26715 94-233; Q13241 32-179, biotin-labeled in the Octet assays (site not stated)); assay: ELISA of scFv supernatant, selection threshold
T2 construct: Heterodimer of the extracellular domains of NKG2A and CD94, each with hFc; also called human-derived NKG2A/CD94-ECD-Fc; hNKG2A/CD94-ECD-Fc; not shown: human IgG Fc fragment (hFc) of the pCpC vector
T2 sequence (P26715 94-233 limits assumed, chain 1 of 2): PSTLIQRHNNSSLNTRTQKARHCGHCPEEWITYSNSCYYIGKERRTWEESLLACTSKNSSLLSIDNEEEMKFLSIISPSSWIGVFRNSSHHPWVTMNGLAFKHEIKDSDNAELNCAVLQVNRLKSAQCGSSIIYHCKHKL
T2 sequence (Q13241 32-179 limits assumed, chain 2 of 2): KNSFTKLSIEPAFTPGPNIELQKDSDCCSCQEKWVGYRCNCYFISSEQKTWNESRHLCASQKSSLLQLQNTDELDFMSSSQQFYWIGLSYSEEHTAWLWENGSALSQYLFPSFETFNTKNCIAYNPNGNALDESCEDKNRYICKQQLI

[3] = molecular target: T1, monkey NKG2A/CD94 on the cell surface …; assay: FACS on CHOK1-cNKG2A/CD94 cells, Alexa 488 secondary antibody
Text: The pCHO1.0 plasmid containing the nucleotide sequence encoding the full-length amino acid sequence of human-derived NKG2A/CD94 as described in step (2) of Example 1 was transfected into the CHOK1 cell line to obtain a CHOK1 stable cell line containing human NKG2A and CD94 (here referred to as CHOk1-hNKG2A/CD94 stable cell line), the pCHO1.0 plasmid carrying the monkey-derived NKG2A and CD94 full-length genes (the preparation method is the same as the preparation method of pCpC vector with human IgG Fc fragment (hFc) in step (1) “Preparation of immunogen A” in Example 1. The CHOK1 cell line was transfected to obtain the CHOK1 stable cell line containing monkey NKG2A/CD94 (here referred to as the CHOk1-cNKG2A/CD94 stable cell line), the CHOK1-hNKG2C/CD94 stable cell line was prepared with the same method. CHOk1-hNKG2A/CD94 stable cell line, CHOk1-cNKG2A/CD94 stable cell line and CHOK1-hNKG2C/CD94 stable cell line were expanded to 90% confluence in T-75 cell culture flasks, aspirating the medium, washed twice with PBS buffer (purchased from Invitrogen), then treating and collecting the cells with an enzyme-free cell dissociation solution (Versene solution, purchased from Life technology). Washing the cells twice with PBS buffer, after counting the cells, diluting the cells with PBS buffer to 2×10⁶ cells per milliliter, adding 1% goat serum blocking solution, the percentage was the mass percentage, incubated on ice for 30 minutes, and then washed twice with PBS buffer by centrifugation. Suspending the collected cells with FACS buffer (PBS+1%BSA, the percentage was the mass percentage) to 2×10⁶ cells/mL, adding it to 96-wells FACS reaction plate at 100 microliters per well, and adding 100 microliters per well of the purified NKG2A antibody test sample obtained in Example 2, incubated on ice for 2 hours. Washed twice with FACS buffer by centrifugation, and adding 100 microliters of fluorescent (Alexa 488) labeled secondary antibody (purchased from Invitrogen) per well, incubated on ice for 1 hour. Washed 3 times by centrifugation with FACS buffer, then suspending the cells with 100 μl FACS buffer, and using FACS (FACS Calibur, purchased from BD) to detect and analyze the results.

[4] = molecular target: T2, hFc-tagged NKG2A/CD94 protein …; assay: BLI (Octet red96), biotinylated immunogen A on streptavidin sensor, antibody in solution
Text: (§1) An Octet red96 instrument (purchased from Fortiebio) was used to determine the affinity constant. The specific operations and methods are based on the instrument manual and the detailed methods provided by the manufacturer. Specifically: using a streptavidin sensor (SA sensor, purchased from Fortiebio) for affinity determination.

NKG2E protein = molecular target: T3, NKG2E protein (human, UniProt Q07444 94-240, limits assumed); assay: ELISA on NKG2E protein
T3 construct: construct and source not described
T3 sequence (Q07444 94-240 limits assumed): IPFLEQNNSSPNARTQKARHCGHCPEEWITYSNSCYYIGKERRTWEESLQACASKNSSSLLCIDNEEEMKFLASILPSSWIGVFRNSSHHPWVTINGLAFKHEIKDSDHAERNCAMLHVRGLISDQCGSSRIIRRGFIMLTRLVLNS

[5] = molecular target: T1, monkey NKG2A/CD94 on the cell surface …; assay: FACS on CHOK1-cNKG2A/CD94 cells
[6] = molecular target: T1, monkey NKG2A/CD94 on the cell surface …; assay: FACS on CHOK1-cNKG2A/CD94 cells; remark: listed apart in the source
[7] = molecular target: T2, hFc-tagged NKG2A/CD94 protein …; assay: BLI (Octet), biotinylated HNKG2A/CD94-ECD-Fc on streptavidin sensor, method of Example 5B
Text: as §1

[8] = molecular target: T4, human NKG2A/CD94 on the cell surface (CHOk1-hNKG2A/CD94 stable cell line) (human, UniProt P26715 1-233; Q13241 1-179); assay: FACS blocking assay: HLA-E-PE binding to CHOk1-hNKG2A/CD94 cells in the presence of the antibody
T4 construct: whole, on cells; 93 and 94 are nucleic acids; also called human NKG2A on the cell surface; NKG2A/CD94 cells

[9] = molecular target: T4, human NKG2A/CD94 on the cell surface …; assay: FACS on CHOK1-hNKG2A/CD94 cells, Alexa 488 secondary antibody
[10] = molecular target: T4, human NKG2A/CD94 on the cell surface …; assay: FACS blocking assay: HLA-E binding to NKG2A/CD94 cells in the presence of the antibody

T1 sequence (Q9MZJ3 other isoform, or with tags, fused parts or gaps, chain 1 of 2): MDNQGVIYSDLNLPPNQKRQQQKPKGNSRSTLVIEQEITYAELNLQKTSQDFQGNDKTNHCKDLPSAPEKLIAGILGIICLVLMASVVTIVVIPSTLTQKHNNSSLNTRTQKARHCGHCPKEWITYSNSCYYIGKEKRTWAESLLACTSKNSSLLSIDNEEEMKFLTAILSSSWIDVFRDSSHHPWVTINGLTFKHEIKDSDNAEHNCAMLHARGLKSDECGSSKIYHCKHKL
T1 sequence (Q9MZK9 whole entry, chain 2 of 2): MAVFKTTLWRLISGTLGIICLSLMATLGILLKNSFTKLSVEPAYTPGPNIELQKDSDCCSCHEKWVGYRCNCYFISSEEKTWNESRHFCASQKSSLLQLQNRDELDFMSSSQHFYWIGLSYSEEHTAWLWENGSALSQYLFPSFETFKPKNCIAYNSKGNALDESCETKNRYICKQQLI

EC50 (read off the curve) [3]	Kd [4]	koff [4]	kon [4]	binding result (NKG2E protein)	Binder	other results
–	–	–	–	–	2F10-2 (scFv clone) (scFv, V domains shown, scFv) VH: QVQLQQSVAELVRPGASVKLSCTASGFNIKNAYVHWVKQRPEQGLEWIGQIDPANGNTKYAPKFQAKATITADTSSNTVYLQLSSLTSEDTAVYYCARSYLGGQYYFDYSGQGTTLTVSS VL: DILMTQSPSSMYASLGERVTITCKASQDINSYLSWFQQKPGKSPKTLIYRANRLVDGVPSRFSGSGSGQDYSLTISSLEYEDMGIYYCLQYDEFPLTFGAGTKLEIK	binding result [1]: binds; OD450 nm reading ratio NKG2A/CD94-ECD-Fc / NKG2C/CD94-ECD-Fc [2]: 4
~1000 pM	18.1 pM	1.84e-05 s⁻¹	1.02e+06 M⁻¹ s⁻¹	no binding (tested: 66.67 nM)	Mab031 (antibody, V domains shown) VH: EVQLQQSVAELVRPGASVRLSCTGSGFNIQNTYIHWVKQRPEQGLEWIGRIDPANGDTKYAPKFQGKATITADTSSNTAYLQLSSLTSEDTAIYYCTRYGNYLYYYSLDYWGQGTSVTVSS VL: DIVMTQAAPSVPVTPGESVSISCRSSKSLLHSNGNTYLYWFLQRPGQSPQLLIYRMSNLASGVPDRFSGSGSGTAFTLRISRVEAEDMGVYYCMQHLEYPYTFGGGTKLEIK	–
~1000 pM	20.2 pM	2.26e-05 s⁻¹	1.12e+06 M⁻¹ s⁻¹	no binding (tested: 66.67 nM)	Mab033 (antibody, V domains shown) VH: EVQLQQSVAEFVRPGASVRLSCTASGFNIENTYIHWLKQRPEQGLEWIGRIDPANGDTQYDPKFQGKATLTAATSSNTAYLQLSGLTSEDTAIYYCTRYGDYLFYYSLKYWGQGTSVTVSS VL: DIVMTQAAPSVSVTPGESVSISCRSSKSLLHSNGNTYLYWFLQRPGQSPQLLIYRMSNLASGVPDRFSGSGSGTAFTLRISRVEAEDVGVYYCMQHLESPYTFGGGTKLEIK	–
~700 pM	10.4 pM	1.04e-05 s⁻¹	995000 M⁻¹ s⁻¹	no binding (tested: 66.67 nM)	Mpb416 (antibody, V domains shown, also called 12G8 (as full antibody)) VH: QVQLQQSVAELVRPGASVKLSCTASGFNIQNTYIHWVKQRPEQGLEWIGKIDPANGDTKYAPTFQGKATITADTSSNTAYLQLSSLTPEDTAIYYCARYRDYLFYYALGYWGQGTSVTVSS VL: DIVMTQSAPSVPVTPGESVSISCRSSKSLLHSNGNTYLYWFLQRPGQSPQLLIYRMSNLASGVPDRFSGSGSGTAFTLRISRVEAEDVGVYYCMQHLEYPYTFGGGTKLEIK	–
~1000 pM	23.9 pM	2.45e-05 s⁻¹	1.03e+06 M⁻¹ s⁻¹	no binding (tested: 66.67 nM)	Mab032 (antibody, V domains shown) VH: EVQLQQSVAELVRPGASVRLSCTGSGFNIENTYMHWLKQRPEQGLEWIGRIDPADGDTQYAPKFQGKATITTDTSSNTAYLQLSSLTSEDTAIYYCARYGNYLFYYSMDYWGQGTSVTVSS VL: DIVMTQAAPSVPVTPGESVSISCRSSKSLLHSNGNTYLYWFLQRPGQSPQLLIYRMSNLASGVPDRFSGSGSATAFTLRISRVEAEDVGIYYCMQHLEYPYTFGGGTKLEIK	–
–	–	–	–	–	M15 (antibody, V domains shown, parent of the humanized M15-1 to M15-15; also called M15 antibody; Mpb416-M15) VH: QVQLQQSVAELVRPGASVKLSCTASGFNIQNTYIHWVKQRPEQGLEWIGKIDPANADTKYAPTFQGKATITADTSSNTAYLQLSSLTPEDTAIYYCARYRDYLFYYALGYWGQGTSVTVSS VL: DIVMTQSAPSVPVTPGESVSISCRSSKSLLHSNANTYLYWFLQRPGQSPQLLIYRMSNLASGVPDRFSGSGSGTAFTLRISRVEAEDVGVYYCMQHLEYPYTFGGGTKLEIK	EC50 (read off the curve) [5]: ~800 pM; EC50 (read off the curve) [6]: ~800 pM
–	–	–	–	–	M15-5 (antibody, V domains shown, Humanized; also called humanized NKG2A antibody) VH: QVQLVQSGAEVKKPGASVKVSCKASGFNIQNTYIHWVKQAPGQGLEWIGKIDPANADTKYAPTFQGRATITADTSTNTAYLELSSLRSEDTAVYYCARYRDYLFYYALGYWGQGTTVTVSS VL: DIVMTQSPLSLPVTPGEPASISCRSSKSLLHSNANTYLYWYLQKPGQSPQLLIYRMSNLASGVPDRFSGSGSGTDFTLKISRVEAEDVGVYYCMQHLEYPYTFGQGTKLEIK	Kd [7]: < 10.4 pM; koff [7]: < 1e-05 s⁻¹; kon [7]: 958000 M⁻¹ s⁻¹; EC50 (read off the curve) [5]: ~1000 pM
~2000 pM	142 pM	0.000189 s⁻¹	1.33e+06 M⁻¹ s⁻¹	–	Tab1 (Z270) (antibody, V domains shown) VH: EVQLVESGGGLVKPGGSLRLSCAASGFTFSSHSMNWVRQAPGKGLEWVSAISSSSSYIYYADSVKGRFTISRDNAKNSLYLQMNSLRAEDTAVYYCAREEWGLPFDYWGQGTLVTVSS VL: AIQLTQSPSSLSASVGDRVTITCRASQGISSALAWYQQKPGKAPKLLIYDASSLKSGVPSRFSGSGSGTDFTLTISSLQPEDFATYYCQQFNSYPLTFGQGTRLEIK	Kd [7]: 182 pM; koff [7]: 0.00162 s⁻¹; kon [7]: 8.87e+06 M⁻¹ s⁻¹; IC50 (read off the curve) [8]: ~700 pM; EC50 (read off the curve) [9]: ~400 pM; IC50 (read off the curve) [10]: ~1000 pM
